This passage reports Kd results from PMC11024467.

In this assay the target is IL-2Rα (UniProt P01589). The assay can be described thus: SPR; Biacore, IL-2 receptor proteins immobilised on a CM5 chip; wild-type IL-2 or variant 012 flowed over at stepwise concentrations for 120 s, then blank solution; 1:1 binding fit (steady state affinity for 001 on IL-2Rα). In general terms: SPR reads the build-up and loss of mass on a sensor chip optically.

Broadly, the Kd is a measure of binding affinity in units of concentration.

Sequence of IL-2Rα (P01589 22-272): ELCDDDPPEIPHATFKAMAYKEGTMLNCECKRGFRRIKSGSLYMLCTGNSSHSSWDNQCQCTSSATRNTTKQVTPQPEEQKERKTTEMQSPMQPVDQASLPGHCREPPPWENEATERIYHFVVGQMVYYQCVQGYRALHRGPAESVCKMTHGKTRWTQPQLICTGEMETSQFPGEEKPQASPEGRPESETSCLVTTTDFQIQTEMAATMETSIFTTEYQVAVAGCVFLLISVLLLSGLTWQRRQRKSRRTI

wild-type IL-2 (001) (ligand) yielded a Kd of 47.5 nM. This counts as double-digit nanomolar.
